From publication PMC3097226 come the findings set out here.

Series [1] in a line: confocal microscopy, stable HeLa lines. The following applies: glycan lost; control: WT CD95.
A short description of series [2]: cycloheximide chase, Western blot, HEK293T. The following applies: glycan lost; control: WT CD95.
The nature of series [3]: anti-APO-1 surface staining (flow cytometry), transient HeLa. The conditions noted are these: glycan lost; control: WT CD95.
The nature of series [4]: high molecular weight CD95 complexes after anti-APO-1, Western blot. The conditions noted are these: glycan lost; control: WT CD95.
Series [5] can be described thus: anti-APO-1 surface staining, flow cytometry. The conditions noted are these: glycan changed form; control: untreated SKW6.4 cells.

B1: CD95 (Fas/APO-1): N118Q (protein)
parent chain: MLGIWTLLPLVLTSVARLSSKSVNAQVTDINSKGLELRKTVTTVETQNLEGLHHDGQFCHKPCPPGERKARDCTVNGDEPDCVPCQEGKEYTDKAHFSSKCRRCRLCDEGHGLEVEINCTRTQNTKCRCKPNFFCNSTVCEHCDPCTKCEHGIIKECTLTSNTKCKEEGSRSNLGWLCLLLLPIPLIVWVKRKEVQKTCRKHRKENQGSHESPTLNPETVAINLSDVDLSKYITTIAGVMTLSQVKGFVRKNGVNEAKIDEIKNDNVQDTAEQKVQLLRNWHQLHGKKEAYDTLIKDLKKANLCTLAEKIQTIILKDITSDSENSNFRNEIQSLV
In the case of B1, the localisation_or_trafficking entry in series [1] and in series [3] was “no change” each time. For the same protein, the degradation_or_half_life result in series [2] was “no change”. Also, the oligomerisation entry in series [4] was “no change”.

B2: CD95 (Fas/APO-1): VCN (protein)
parent chain: MLGIWTLLPLVLTSVARLSSKSVNAQVTDINSKGLELRKTVTTVETQNLEGLHHDGQFCHKPCPPGERKARDCTVNGDEPDCVPCQEGKEYTDKAHFSSKCRRCRLCDEGHGLEVEINCTRTQNTKCRCKPNFFCNSTVCEHCDPCTKCEHGIIKECTLTSNTKCKEEGSRSNLGWLCLLLLPIPLIVWVKRKEVQKTCRKHRKENQGSHESPTLNPETVAINLSDVDLSKYITTIAGVMTLSQVKGFVRKNGVNEAKIDEIKNDNVQDTAEQKVQLLRNWHQLHGKKEAYDTLIKDLKKANLCTLAEKIQTIILKDITSDSENSNFRNEIQSLV
For B2, the localisation_or_trafficking entry in series [5] was “no change”.

B3: CD95 (Fas/APO-1): N118Q/N136Q (protein)
parent chain: MLGIWTLLPLVLTSVARLSSKSVNAQVTDINSKGLELRKTVTTVETQNLEGLHHDGQFCHKPCPPGERKARDCTVNGDEPDCVPCQEGKEYTDKAHFSSKCRRCRLCDEGHGLEVEINCTRTQNTKCRCKPNFFCNSTVCEHCDPCTKCEHGIIKECTLTSNTKCKEEGSRSNLGWLCLLLLPIPLIVWVKRKEVQKTCRKHRKENQGSHESPTLNPETVAINLSDVDLSKYITTIAGVMTLSQVKGFVRKNGVNEAKIDEIKNDNVQDTAEQKVQLLRNWHQLHGKKEAYDTLIKDLKKANLCTLAEKIQTIILKDITSDSENSNFRNEIQSLV
Take B3: the degradation_or_half_life result in series [2] is given as “no change”. For the same protein, in series [4], the oligomerisation result is reported as “no change”.

B4: CD95 (Fas/APO-1): N136Q (protein)
parent chain: MLGIWTLLPLVLTSVARLSSKSVNAQVTDINSKGLELRKTVTTVETQNLEGLHHDGQFCHKPCPPGERKARDCTVNGDEPDCVPCQEGKEYTDKAHFSSKCRRCRLCDEGHGLEVEINCTRTQNTKCRCKPNFFCNSTVCEHCDPCTKCEHGIIKECTLTSNTKCKEEGSRSNLGWLCLLLLPIPLIVWVKRKEVQKTCRKHRKENQGSHESPTLNPETVAINLSDVDLSKYITTIAGVMTLSQVKGFVRKNGVNEAKIDEIKNDNVQDTAEQKVQLLRNWHQLHGKKEAYDTLIKDLKKANLCTLAEKIQTIILKDITSDSENSNFRNEIQSLV
Regarding B4, the localisation_or_trafficking result in series [1] and in series [3] was “no change” in each case. In series [2], the degradation_or_half_life entry is “no change”. Moreover, the oligomerisation result in series [4] is on record as “no change”.

B5: CD95 (Fas/APO-1): DMM (protein)
parent chain: MLGIWTLLPLVLTSVARLSSKSVNAQVTDINSKGLELRKTVTTVETQNLEGLHHDGQFCHKPCPPGERKARDCTVNGDEPDCVPCQEGKEYTDKAHFSSKCRRCRLCDEGHGLEVEINCTRTQNTKCRCKPNFFCNSTVCEHCDPCTKCEHGIIKECTLTSNTKCKEEGSRSNLGWLCLLLLPIPLIVWVKRKEVQKTCRKHRKENQGSHESPTLNPETVAINLSDVDLSKYITTIAGVMTLSQVKGFVRKNGVNEAKIDEIKNDNVQDTAEQKVQLLRNWHQLHGKKEAYDTLIKDLKKANLCTLAEKIQTIILKDITSDSENSNFRNEIQSLV
Regarding B5, the localisation_or_trafficking result in series [5] is listed as “no change”.
